Measurements published in US20160362487A1 (Regeneron, published 2016).

Legend:
[1] = target: T1, human IL-33 (R&D Systems, #3625-IL-010/CF) (human, UniProt O95760 112-270); assay: cell-based or functional assay
T1 sequence (looked up): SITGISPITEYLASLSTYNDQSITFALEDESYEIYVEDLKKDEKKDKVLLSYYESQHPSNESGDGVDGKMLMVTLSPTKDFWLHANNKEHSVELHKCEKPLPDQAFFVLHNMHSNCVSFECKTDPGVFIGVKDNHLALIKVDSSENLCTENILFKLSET

[2] = target: T2, cynomolgus monkey IL-33 expressed with a C-terminal hexahistidine tag (cynomolgus monkey); assay: cell-based or functional assay
T2 chain: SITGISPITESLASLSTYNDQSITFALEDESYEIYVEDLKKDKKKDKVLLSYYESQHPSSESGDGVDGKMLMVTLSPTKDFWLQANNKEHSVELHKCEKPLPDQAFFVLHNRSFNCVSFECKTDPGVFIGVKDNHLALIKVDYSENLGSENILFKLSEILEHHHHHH

[3] = target: T1, human IL-33 (R&D Systems, …); assay: SPR 37C, pH6.0 chase, mAb captured
Method: (§1) Equilibrium dissociation constants (KD values) for IL-33 binding to purified anti-IL-33 monoclonal antibodies were determined using a real-time surface plasmon resonance biosensor using a Biacore 4000 instrument. The Biacore sensor surface was first derivatized by amine coupling with either a polyclonal rabbit anti-mouse antibody (GE, # BR-1008-38) or with a monoclonal mouse anti-human Fc antibody (GE, # BR-1008-39) to capture anti-IL-33 monoclonal antibodies expressed with mouse or with human IgG4 constant regions, respectively. All Biacore binding studies were performed in 0.01M ADA pH 7.4, 0.15M NaCl, 3 mM EDTA, and 0.05% v/v Surfactant Tween-20 (ABS-ET running buffer). […] Association of either hIL-33 or MfIL-33-6His to the captured monoclonal antibody was monitored for 4 minutes and their dissociation in ABS-ET running buffer was monitored for 10 minutes. The effect of reduced pH on the binding of each anti-IL-33 antibody to either hIL-33 or MfIL-33-6His was studied using an in-line pH chase assay format in 0.01M ADA pH 6.0, 0.15M NaCl, 3 mM EDTA, and 0.05% v/v Surfactant Tween-20 (ABS-ET pH6 buffer). To achieve this, association of either hIL-33 or MfIL-33-6His to the captured monoclonal antibody was monitored for 4 minutes in ABS-ET running buffer. Following a 30 second dissociation of either hIL-33 or MfIL-33-6His in ABS-ET running buffer, ABS-ET pH6 buffer was injected for 3 minutes, and the analyte dissociation under the low-pH conditions was measured. All the binding kinetic experiments were performed at both 25° C. and 37° C. Kinetic association (kₐ) and dissociation (kd) constants were determined by fitting the real-time sensorgrams to a 1:1 binding model using Scrubber 2.0c curve fitting software. Binding dissociation equilibrium constants (KD) and dissociative half-lives (t½) were calculated from the kinetic rate constants as: […]

[4] = target: T2, cynomolgus monkey IL-33 expressed with …; assay: BLI; captured MfIL-33-6His, mAb-1 step with Buffer
Method: (§2) Binding competition between a panel of different anti-IL-33 monoclonal antibodies was determined using a real time, label-free bio-layer interferometry assay on an Octet® HTX biosensor (ForteBio, A Division of Pall Life Sciences). The experiment was performed at 25° C. using a buffer of 0.01M HEPES pH7.4, 0.15M NaCl, 3 mM EDTA, 0.05% v/v Surfactant Tween-20, and 0.1 mg/ml BSA (HBS-ET kinetics buffer) with the plate shaking at a speed of 1000 rpm. […] The antigen-captured biosensors were then saturated with a first anti-IL-33 monoclonal antibody (subsequently referred to as mAb-1) by immersion into wells containing 50 μg/mL solution of mAb-1 for 5 minutes. The biosensors were then dipped into wells containing a 50 μg/mL solution of a second anti-IL-33 monoclonal antibody (subsequently referred to as mAb-2) for 4 minutes. The biosensors were washed in HBS-ET kinetics buffer in between every step of the experiment. The real-time binding response was monitored during the experiment, and the maximum binding response for each binding step was recorded. The response of mAb-2 binding to MfIL-33-6His pre-complexed with mAb-1 was measured, and competitive/non-competitive behavior of different anti-IL-33 monoclonal antibodies with respect to each other was determined.

[5] = target: T2, cynomolgus monkey IL-33 expressed with …; assay: BLI; captured MfIL-33-6His, mAb-1 step with Isotype control
Method: as §2

[6] = target: T2, cynomolgus monkey IL-33 expressed with …; assay: SPR 37C, pH6.0 chase, mAb captured
Method: as §1

Binder	IC50, inhibition of 10 pM hIL-33 activation of HEK293/hST2/NFkB-luciferase cells [1] [M]	IC50, inhibition of 5 pM MfIL-33-6His activation of HEK293/hST2/NFkB-luciferase cells [2] [M]	koff [3] [s⁻¹]	t½ [3] [min]	t½ Ratio (pH 7.4/pH 6.0) [3]	mAb-2 Binding to the Pre-complex of mAb-1 & MfIL-33-6xHis [4] [nm]	mAb-2 Binding to the Pre-complex of mAb-1 & MfIL-33-6xHis [5] [nm]	koff [6] [s⁻¹]	t½ [6] [min]	t½ Ratio (pH 7.4/pH 6.0) [6]
H4H9629P (antibody, human IgG4, V domains shown, Human IgG4 Fc (H4H)) VH: EVQLVESGGGLVQPGGSLRLSCAASGFTFRSFAMSWVRQAPGKGLELVSDLRTSGGSTYYADSVKGRLTISRDNSKNTLYLQMNSLRAEDTAVYYCAKSHYSTSWFGGFDYWGQGTLVTVSS VL: DIQMTQSPSSVSASVGDRVTITCRASQGFSSWLAWYQQKPGKAPKLLIYAASSLQSGVPSRFSGSGSGTDFTLTITNLQPEDFATYYCQQANSFPLTFGGGTKVEIK	1.3e-11	5.5e-08	0.00582	2	9	0.3	0.26			
H4H9666P (antibody, human IgG4, V domains shown, Human IgG4 Fc (H4H)) VH: QVQLVQSGAEVKKPGASVKVSCKASGYTFTSYGISWVRQAPGQGLEWMGWIRAYNGYTNYAQKFQGRVTMTTDTSTNTAYMELRTLNSDDTAVYYCARDRYSGSFHGNFDYWGQGTLVTVSS VL: DIQMTQSPSSVSASVGDRVTITCRASQGIFSWLAWYQQKPGKAPKVLIYAASNLESGVPSRFSGSGSGTDFTLTISSLQPEDFATYYCQQANSLPLTFGGGTKVEIK	3.5e-11	7.8e-08	0.0068	2	8.8	0.32	0.28			
H4H9676P (antibody, human IgG4, V domains shown, Human IgG4 Fc (H4H)) VH: EVQLVESGGGLVQPGGSLRLSCSASGFTFSSYAMNWVRQAPGKGLEWVTAISGSGGGTYYADSVKGRFTISRDNSKNSLFLQLNSLRAEDTAVYYCAKQTYTSSWYGGFDIWGQGTMVTVSS VL: DIQMTQSPSSVSASVGDRVTITCRASQGFSSWLAWYQQIPGKAPKLLIYAASRLQSGVPSRFRGSGSGTDFTLTISSLQPEDFATYYCQQANSFPLTFGGGTKVEIK	3.5e-11	8.4e-09	0.00524	2	4.1	0.29	0.25			
H4H9633P (antibody, human IgG4, V domains shown, Human IgG4 Fc (H4H)) VH: EVQLVESGGGLVQPGGSLRLSCAASGFTFSSYVMSWVRQAPGKGLEWVSSISGNGGSTNYADSVKGRFTISRDNSKNTLFLEMNSLRAEDTAVYYCAKSLGTTTTFLGFDYWGQGTLVTVSS VL: DIQMTQSPSSVSASVGDRVTITCRASQGISSWLAWYQQKPGKAPKLLIYAASSLQSGVPSRFSGSGSGTYFTLTISSLQPEDFATYYCQQANSFPLTFGGGTKVEIK	2.2e-10	1.3e-07	0.0024	5	3.5	0.32	0.28			
H4H9672P (antibody, human IgG4, V domains shown, Human IgG4 Fc (H4H)) VH: EVQLVESGGGLVQPGGSLRLSCAASGFTLRSYVMYWVRQGPGKGLEGVSGISGSSGGTYYTDSVKGRFTISRDNSKNTLFLQMNSLRAEDTAVYFCARSVYSTTWYGGFQHWGQGTLVTVSS VL: DIQMTQSPSSVSVSVGDRVTITCRASQVISSWLAWYQLKPGKAPKLLIYAASSLQSGVPSRFSGSGSGTDFTLTISGLQPEDFAVYYCQQTNSFPLTFGGGTKVEIK	2.5e-11	2e-08	0.00541	2	4.7	0.3	0.25			
H1M9568N (antibody, mouse IgG1, V domains shown, Human variable domains, mouse IgG1 Fc (H1M)) VH: QVLLVQSGAEVKKPGATVKVSCKASGSTFTGYYMHWVRQAPGQGLEWMGWINPNNGGTNYAQKFQGRVTMTRDTSISTAYMELSRLRSDDTAVYYCARELRYNWKSWGQGTLVTVSS VL: EIVLTQSPGTLSLSPGERVTLSCRASQSVGRPYLAWYQQIPGQAPRLLIYGASSRATDIPDRFSGNGSGTDFTLTISRLEPEDFAVYYCQQYDNSPYTFGQGTRLEIK	2.5e-10	3.5e-09	0.0011	10	1.1	0.37	0.34	0.00224	5	1.3
H1M9566N (antibody, mouse IgG1, V domains shown, Human variable domains, mouse IgG1 Fc (H1M)) VH: EVQLLESGGDLVQPGGSLRLSCAASGFTFSSYAMSWVRQAPGKGLEWVSVISGSGSSTDYADSVKGRFTISRDNSRDTLHLQMNSLRAEDTAVYYCAKTFYYFYGLDVWGQGTTVTVSS VL: DIQMTQSPSSLSASLRDRVTITCRASQGISNYLAWYQQKPGKVPKVLIYAASTLQSGVPSRFSGSGSGTVFTLTISSLQTEDVATYYCQKYSSAPFTFGPGTKVDIK	9.5e-10	1.5e-09	0.000967	12	3.4	0.39	0.38	0.00115	10	2.9
H1M9565N (antibody, mouse IgG1, V domains shown, Human variable domains, mouse IgG1 Fc (H1M)) VH: QVTLKESGPVLVKPTESLTLTCSVSGFSLSNVRMGVSWIRQSPGKALEWLAHIFSNDEKSYTTSLKTRLTISKDTSRSQVVLTMTDMDPGDTATYYCARIRNLAFNYWGQGTLVTVSS VL: not shown	2.9e-08	1.7e-08				0.34	0.34	0.000228	51	1.1
